The target of experiment [1] is T1, human beta klotho / human FGFR1c receptor complex on cells (human, UniProt Q86Z14 1-1044; P11362 22-822). The experiment is described as follows: cell-based or functional assay.
For experiment [2], the target named is T2, human beta klotho protein (soluble, used in Biacore) (human, UniProt Q86Z14 53-997, limits assumed).
T2 construct: also called HuKLB; huKLB
T2 sequence: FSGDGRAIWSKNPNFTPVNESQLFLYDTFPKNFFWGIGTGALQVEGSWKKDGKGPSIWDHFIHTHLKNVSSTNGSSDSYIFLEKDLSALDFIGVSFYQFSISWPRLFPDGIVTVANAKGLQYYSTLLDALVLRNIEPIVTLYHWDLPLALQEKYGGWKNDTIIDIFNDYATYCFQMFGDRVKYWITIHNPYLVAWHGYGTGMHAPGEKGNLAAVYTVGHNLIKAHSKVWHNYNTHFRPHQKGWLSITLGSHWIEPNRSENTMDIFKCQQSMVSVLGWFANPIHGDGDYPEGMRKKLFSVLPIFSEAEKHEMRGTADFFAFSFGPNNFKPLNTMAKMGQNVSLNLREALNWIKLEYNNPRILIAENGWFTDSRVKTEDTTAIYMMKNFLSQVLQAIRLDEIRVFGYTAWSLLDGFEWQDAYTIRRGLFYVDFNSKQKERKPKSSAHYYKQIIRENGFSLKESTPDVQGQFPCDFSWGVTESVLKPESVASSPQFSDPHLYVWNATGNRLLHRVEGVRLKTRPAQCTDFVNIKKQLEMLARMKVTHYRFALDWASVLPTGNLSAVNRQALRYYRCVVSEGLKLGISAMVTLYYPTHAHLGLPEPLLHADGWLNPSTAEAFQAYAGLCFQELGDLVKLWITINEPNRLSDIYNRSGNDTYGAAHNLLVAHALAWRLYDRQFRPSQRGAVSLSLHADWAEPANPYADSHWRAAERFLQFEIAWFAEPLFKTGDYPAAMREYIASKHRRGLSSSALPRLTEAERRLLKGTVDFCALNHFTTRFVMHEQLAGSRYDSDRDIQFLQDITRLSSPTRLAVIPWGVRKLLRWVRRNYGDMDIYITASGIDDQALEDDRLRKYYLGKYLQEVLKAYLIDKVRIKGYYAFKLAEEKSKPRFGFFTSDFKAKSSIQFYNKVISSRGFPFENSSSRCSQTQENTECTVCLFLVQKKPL
The experiment is described as follows: Biacore SPR (as in Example 2). (In general: SPR reads the build-up and loss of mass on a sensor chip optically.)

In experiment [3] the target is T3, cynomolgus monkey beta klotho protein (soluble, used in Biacore) (cynomolgus monkey (Macaca fascicularis), UniProt Q86Z14 53-996 (human entry), limits assumed).
T3 construct: Protein in solution; also called Cyno KLB; cyKLB
T3 chain: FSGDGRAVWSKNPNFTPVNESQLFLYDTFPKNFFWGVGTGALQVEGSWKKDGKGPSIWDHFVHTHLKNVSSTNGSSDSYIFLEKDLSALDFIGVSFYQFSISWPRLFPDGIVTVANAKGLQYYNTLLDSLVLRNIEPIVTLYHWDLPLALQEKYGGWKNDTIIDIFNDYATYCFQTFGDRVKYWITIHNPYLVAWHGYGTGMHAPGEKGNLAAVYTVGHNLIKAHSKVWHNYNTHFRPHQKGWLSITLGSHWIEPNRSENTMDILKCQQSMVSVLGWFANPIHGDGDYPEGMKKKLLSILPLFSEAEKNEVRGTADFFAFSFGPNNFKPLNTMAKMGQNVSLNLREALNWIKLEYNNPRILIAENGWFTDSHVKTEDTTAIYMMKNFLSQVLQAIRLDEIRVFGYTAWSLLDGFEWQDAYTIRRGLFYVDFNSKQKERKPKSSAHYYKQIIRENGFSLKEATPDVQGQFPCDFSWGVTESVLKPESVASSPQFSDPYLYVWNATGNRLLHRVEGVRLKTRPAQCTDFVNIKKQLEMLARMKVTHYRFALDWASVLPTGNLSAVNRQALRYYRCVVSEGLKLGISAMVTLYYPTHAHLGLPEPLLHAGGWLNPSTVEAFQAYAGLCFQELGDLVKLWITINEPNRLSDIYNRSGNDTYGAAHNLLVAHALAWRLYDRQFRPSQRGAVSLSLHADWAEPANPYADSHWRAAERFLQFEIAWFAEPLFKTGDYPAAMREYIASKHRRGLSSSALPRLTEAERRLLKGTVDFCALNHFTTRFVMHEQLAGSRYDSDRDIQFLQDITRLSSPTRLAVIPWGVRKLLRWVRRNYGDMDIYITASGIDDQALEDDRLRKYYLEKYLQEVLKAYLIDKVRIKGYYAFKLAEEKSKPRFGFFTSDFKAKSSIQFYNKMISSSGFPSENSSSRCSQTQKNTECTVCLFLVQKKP
The experiment is described as follows: Biacore SPR (as in Example 2).

Experiment [4] addresses T1, human beta klotho / human FGFR1c …. Description: cell-based or functional assay. This is another data set of the same source.
Experiment [5] addresses T4, human beta klotho expressed on cells (human, UniProt Q86Z14 1-1044).
T4 construct: also called HuKLB overexpressing cells; Human KLB
T4 sequence: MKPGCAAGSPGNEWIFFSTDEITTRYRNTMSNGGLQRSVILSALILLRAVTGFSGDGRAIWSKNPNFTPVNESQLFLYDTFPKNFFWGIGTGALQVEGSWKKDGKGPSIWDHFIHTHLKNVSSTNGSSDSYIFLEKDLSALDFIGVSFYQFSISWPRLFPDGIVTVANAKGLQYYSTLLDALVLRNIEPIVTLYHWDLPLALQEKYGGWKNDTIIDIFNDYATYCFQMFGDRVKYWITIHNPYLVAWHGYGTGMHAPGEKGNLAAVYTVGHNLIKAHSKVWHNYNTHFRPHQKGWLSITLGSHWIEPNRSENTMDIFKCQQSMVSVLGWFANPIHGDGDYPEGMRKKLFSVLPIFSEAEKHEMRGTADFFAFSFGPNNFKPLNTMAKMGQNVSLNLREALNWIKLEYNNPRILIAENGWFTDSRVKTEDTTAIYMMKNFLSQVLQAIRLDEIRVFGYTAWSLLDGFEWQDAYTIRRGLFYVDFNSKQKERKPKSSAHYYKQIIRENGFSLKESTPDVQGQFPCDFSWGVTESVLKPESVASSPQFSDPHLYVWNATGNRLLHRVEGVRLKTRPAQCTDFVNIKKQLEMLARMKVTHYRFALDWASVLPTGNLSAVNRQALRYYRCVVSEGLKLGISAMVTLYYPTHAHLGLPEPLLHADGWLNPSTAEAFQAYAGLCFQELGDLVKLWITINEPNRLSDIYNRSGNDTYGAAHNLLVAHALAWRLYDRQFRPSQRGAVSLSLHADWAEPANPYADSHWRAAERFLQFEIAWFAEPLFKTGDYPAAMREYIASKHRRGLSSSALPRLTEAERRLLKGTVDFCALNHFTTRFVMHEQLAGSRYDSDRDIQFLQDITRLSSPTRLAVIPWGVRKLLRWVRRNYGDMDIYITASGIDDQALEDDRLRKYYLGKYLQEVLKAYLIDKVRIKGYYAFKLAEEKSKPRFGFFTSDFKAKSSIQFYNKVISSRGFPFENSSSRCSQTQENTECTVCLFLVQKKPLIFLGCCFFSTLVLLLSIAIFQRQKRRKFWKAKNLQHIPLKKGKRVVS
The experiment is described as follows: FACS competition on HuKLB-overexpressing cells; row antibody unlabelled; competitor 3I13-Alexa488 (labelled, EC10); MFI of the label. The protocol:
(§1) For example, for competition binding assays by FACS analysis, antibody standards were prepared that were conjugated to a fluorochrome using either A488 or A647 antibody labeling kit (Invitrogen) following manufacturer's instructions. A dose titration of the conjugated antibody standard was evaluated using HuKLB overexpressing cells. The plateau of the maximal signal of antibody binding is EC=100 and the background signal is EC=0. Competition by FACS against the fluorochrome labeled antibody was performed by pre-incubating HuKLB overexpressing cells with hybridoma supernatants for 15 minutes at room temperature. Without washing, an EC=10 concentration of A488 or A647 labelled antibody standard was added. EC=10 for an individual antibody was determined by 10% of signal using the maximum signal as (100%) and background signal as (0%). After 30 minutes at 4° C., cells are washed and analyzed by FACS. […] A partial competing antibody is one sample that show signal between labelled antibody alone and background. Antibodies that show complete competition against the same standard antibody are considered to be in the same bin.
(§2) Representative results are shown in Table 12 below reported as mean fluorescence intensity (MFI).

Experiment [6] deals with T1, human beta klotho / human FGFR1c …. Description: cell-based or functional assay. The source holds these as a separate data set.
Experiment [7] deals with cynomolgus beta klotho / human FGFR1c receptor complex on cells (cynomolgus monkey (Macaca …)). Description: cell-based or functional assay.
cynomolgus beta klotho / human FGFR1c receptor complex on cells (cynomolgus monkey (Macaca …)), sequence (chain, as listed by the source limits assumed, chain 1 of 2): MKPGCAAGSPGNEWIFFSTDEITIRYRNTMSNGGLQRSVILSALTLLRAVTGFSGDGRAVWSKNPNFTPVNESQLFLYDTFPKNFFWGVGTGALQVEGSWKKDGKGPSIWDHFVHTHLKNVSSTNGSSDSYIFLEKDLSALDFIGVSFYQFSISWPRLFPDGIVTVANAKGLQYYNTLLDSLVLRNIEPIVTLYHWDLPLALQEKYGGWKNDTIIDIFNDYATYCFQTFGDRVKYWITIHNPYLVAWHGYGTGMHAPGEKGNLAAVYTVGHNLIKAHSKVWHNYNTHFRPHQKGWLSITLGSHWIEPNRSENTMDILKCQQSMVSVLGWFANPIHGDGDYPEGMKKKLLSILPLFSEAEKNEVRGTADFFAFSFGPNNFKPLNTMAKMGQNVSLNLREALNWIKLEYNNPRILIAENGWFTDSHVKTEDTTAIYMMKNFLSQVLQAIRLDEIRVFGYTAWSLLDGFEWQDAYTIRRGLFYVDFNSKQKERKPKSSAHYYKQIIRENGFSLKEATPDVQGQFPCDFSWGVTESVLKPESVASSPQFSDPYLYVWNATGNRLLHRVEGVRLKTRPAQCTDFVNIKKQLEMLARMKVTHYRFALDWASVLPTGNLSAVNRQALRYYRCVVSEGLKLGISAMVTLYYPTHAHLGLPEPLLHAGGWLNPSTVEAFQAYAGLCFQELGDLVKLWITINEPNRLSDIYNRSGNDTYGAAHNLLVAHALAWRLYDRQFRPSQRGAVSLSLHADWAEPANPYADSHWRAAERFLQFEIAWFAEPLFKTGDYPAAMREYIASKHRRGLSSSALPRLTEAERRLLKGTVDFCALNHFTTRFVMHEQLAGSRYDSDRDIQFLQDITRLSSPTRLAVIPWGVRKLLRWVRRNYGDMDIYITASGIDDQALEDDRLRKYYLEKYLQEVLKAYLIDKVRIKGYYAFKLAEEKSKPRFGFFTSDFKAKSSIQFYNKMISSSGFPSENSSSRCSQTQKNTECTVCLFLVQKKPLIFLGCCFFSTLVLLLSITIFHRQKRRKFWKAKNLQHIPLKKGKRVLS
cynomolgus beta klotho / human FGFR1c receptor complex on cells (cynomolgus monkey (Macaca …)), sequence (chain, as listed by the source limits assumed, chain 2 of 2): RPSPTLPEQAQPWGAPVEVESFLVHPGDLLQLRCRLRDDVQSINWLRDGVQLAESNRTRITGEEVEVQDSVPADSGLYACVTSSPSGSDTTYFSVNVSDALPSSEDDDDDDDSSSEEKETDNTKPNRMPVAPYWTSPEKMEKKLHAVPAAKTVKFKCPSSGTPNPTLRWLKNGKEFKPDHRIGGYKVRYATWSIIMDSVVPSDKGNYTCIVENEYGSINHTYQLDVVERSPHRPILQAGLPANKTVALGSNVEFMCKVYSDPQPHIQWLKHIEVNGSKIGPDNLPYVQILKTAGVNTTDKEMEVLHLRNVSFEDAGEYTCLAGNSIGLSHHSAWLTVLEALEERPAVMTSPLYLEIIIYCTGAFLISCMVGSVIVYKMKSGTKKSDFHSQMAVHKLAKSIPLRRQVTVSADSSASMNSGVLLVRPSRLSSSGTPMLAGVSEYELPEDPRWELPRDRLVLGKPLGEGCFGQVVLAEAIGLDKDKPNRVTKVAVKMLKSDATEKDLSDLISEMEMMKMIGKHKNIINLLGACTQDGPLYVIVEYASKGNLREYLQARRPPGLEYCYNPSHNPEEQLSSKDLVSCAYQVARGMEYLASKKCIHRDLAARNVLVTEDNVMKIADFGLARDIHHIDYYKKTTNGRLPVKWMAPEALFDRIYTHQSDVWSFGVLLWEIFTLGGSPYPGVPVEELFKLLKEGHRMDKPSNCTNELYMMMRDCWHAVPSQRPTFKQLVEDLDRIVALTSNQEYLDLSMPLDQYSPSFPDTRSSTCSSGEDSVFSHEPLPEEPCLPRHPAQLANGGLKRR
The target in experiment [8] is T4, human beta klotho expressed on cells. The experiment is described as follows: FACS competition on HuKLB-overexpressing cells; row antibody unlabelled; competitor 5H23-Alexa647 (labelled, EC10); MFI of the label. The protocol:
as §1, §2

B1: humanized 5H23 antibody vH3-vL2 (antibody, human IgG1, kappa, V domains shown)
VH: QVQLQQSGAEVKKPGASVKVSCKASGYTFTSYDINWVRQAPGQGLEWIGWIYPGDGSTKYNEKFKGKATITRDTSASTAYMELSSLRSEDTAVYFCARSDYYGSRSFAYWGQGTLVTVSS
VL: DIVMTQSPDSLAVSLGERATINCRASKSVSTSGYVYMHWYQQKPGQPPKLLIYLASYLESGVPDRFSGSGSGTDFTLTISSVQAEDVAVYYCQHSRDLTFPFGGGTKLEIKR
notes: Probably the same antibody as m13; also called vH3 (vL2 group)
Broadly, the Kd is the constant that tells how readily two partners part at equilibrium. For the molecule B1, in experiment [1], the EC50-adipocyte was 5500 pM. Moreover, the EC50 reporter assay in experiment [1] was determined as 680 pM. Also, the equilibrium dissociation constant (Kd) in experiment [2] was 230 pM; in experiment [3] it was 590 pM.

B2: antibody 1G19 (antibody, V domains shown)
VH: QVQLQESGPGLVKPSQSLSLTCSVTGYSITSGYYWNWIRQFPGNKLEWMGYINYGGSNNYNPSLKNRISITRDTSKNQFFLKLTSVTTEDTATYYCARRGAYYSNYDSFDVWGTGTTVTVSS
VL: DIKMTQSPSSMYASLGERVTITCKASQDINSYLSWFQQKPGKSPKTLIYRANRLVDGVPSRFSGSGSGQDYSLTISSLEYEEMGIYYCLQYDEFPYTFGGGTKLEIK
notes: Murine monoclonal antibody
B2: the “hAdip pERK assay EC50, Experiment - B” value in experiment [4] worked out at 1.3 nM. Also, in experiment [5], the “Mean Florescence Intensity (MFI)” value turned out to be 29 MFI. Further, in experiment [6], the “HEK293 huKLB/R1c reporter assay EC50, Experiment - A” value turned out to be 231 pM and the “HEK293 huKLB/R1c reporter assay EC50, Experiment - B” value turned out to be 127 pM. Also, in experiment [7], the “HEK293 cynoKLB/R1c reporter assay EC50, Experiment - A” value was 2350 pM and the “HEK293 cynoKLB/R1c reporter assay EC50, Experiment - B” value amounted to 2450 pM. Also, the “Mean Florescence Intensity (MFI)” value in experiment [8] amounted to 2.2 MFI.

The record behind these values is US20210030857A1 (NGM BIOPHARMACEUTICALS, published 2021).
